Experimental data: the Human Domainome abundance scans (Beltran et al. 2025)

B1: Calcium-binding protein 2, residues 155 to 219; numbered along this chain, Q9NPB3 (parent)
chain: RELRDAFREFDTNGDGRISVGELRAALKALLGERLSQREVDEILQDVDLNGDGLVDFEEFVRMMS

Variants of: B1
Experiment: abundance fitness (aPCA) (normalised: wild type 0, dead -1); higher = more abundant; growth selection in yeast, the domain comes from the species named
Settings: Homo sapiens

Abundance fitness: each site, then its substitutions
M64: C 0.067; T 0.015; K -0.075; L -0.025; Q -0.041; G 0.008; S 0.174; E 0.301; N 0.171; P -0.555; R 0.109; W 0.104; V 0.157; D -0.255; I -0.014; Y 0.209; H 0.098
M63: H 0.05; G -0.16; W -0.003; Y -0.108; R -0.404; V 0.047; P -0.614; S -0.158; T 0.102; F -0.081; N 0.057; Q -0.035; K -0.459; L 0.101
